Test results published in patent publication EP3461842A1 (Amgen Research (Munich) GmbH, dated 2019).

T1: 1-27 CD3-EpCAM, human 27 mer (N-terminal amino acids 1-27 of human CD3 epsilon, Flag tag, cynomolgus EpCAM) (human; cynomolgus monkey)
T1 chain: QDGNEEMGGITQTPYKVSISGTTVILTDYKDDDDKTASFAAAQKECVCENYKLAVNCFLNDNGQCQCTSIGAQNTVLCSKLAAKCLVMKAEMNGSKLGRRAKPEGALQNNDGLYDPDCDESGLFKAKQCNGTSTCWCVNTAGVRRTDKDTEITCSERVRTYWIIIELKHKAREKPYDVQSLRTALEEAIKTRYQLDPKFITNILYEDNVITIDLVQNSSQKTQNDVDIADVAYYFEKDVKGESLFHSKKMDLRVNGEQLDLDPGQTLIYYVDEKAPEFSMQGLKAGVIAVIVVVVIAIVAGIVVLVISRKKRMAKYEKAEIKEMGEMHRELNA

T2: 1-27 CD3-EpCAM, squirrel monkey 27 mer (Saimiri sciureus CD3 epsilon 1-27, Flag tag, cynomolgus EpCAM) (Saimiri sciureus; cynomolgus monkey)
T2 construct: On transfected cells
T2 chain: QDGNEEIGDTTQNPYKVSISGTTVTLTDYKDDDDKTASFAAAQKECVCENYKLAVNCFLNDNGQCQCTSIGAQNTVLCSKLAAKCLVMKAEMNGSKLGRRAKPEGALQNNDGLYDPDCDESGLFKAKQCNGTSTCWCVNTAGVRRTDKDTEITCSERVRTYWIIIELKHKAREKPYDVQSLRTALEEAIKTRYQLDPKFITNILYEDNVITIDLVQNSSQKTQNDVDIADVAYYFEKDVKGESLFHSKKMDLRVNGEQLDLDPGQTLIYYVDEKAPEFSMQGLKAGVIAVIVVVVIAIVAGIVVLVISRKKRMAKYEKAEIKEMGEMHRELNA

T3: 1-27 CD3-EpCAM, swine 27 mer (Sus scrofa CD3 epsilon 1-27, Flag tag, cynomolgus EpCAM) (Sus scrofa; cynomolgus monkey)
T3 construct: Negative control, on transfected cells
T3 chain: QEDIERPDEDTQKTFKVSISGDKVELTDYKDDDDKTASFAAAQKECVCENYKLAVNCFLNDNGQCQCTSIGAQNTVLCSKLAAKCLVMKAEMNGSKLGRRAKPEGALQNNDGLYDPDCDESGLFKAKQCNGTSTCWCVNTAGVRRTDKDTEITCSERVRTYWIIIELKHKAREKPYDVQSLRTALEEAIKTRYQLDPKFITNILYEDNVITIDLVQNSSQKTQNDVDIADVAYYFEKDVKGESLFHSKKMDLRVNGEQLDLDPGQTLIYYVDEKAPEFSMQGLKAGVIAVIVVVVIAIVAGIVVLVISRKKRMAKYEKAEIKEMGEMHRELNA


Columns and labels:
[1] = target: T4, 1-27 CD3-Fc (N-terminal amino acids 1-27 of the mature human CD3 epsilon chain fused to the hinge and Fc … (human)); assay: ELISA, captured 1-27 CD3-Fc, periplasmic scFv
T4 construct: The synthetic gene also codes a 19 amino acid immunoglobulin leader; also called 27 aa huCD3E; human CD3 epsilon (aa 1-27)- Fc fusion protein

[2] = target: T1, 1-27 CD3-EpCAM, human 27 mer …; assay: FACS, 293-HEK transfectant
[3] = target: T2, 1-27 CD3-EpCAM, squirrel monkey 27 mer …; assay: FACS, 293-HEK transfectant
[4] = target: T3, 1-27 CD3-EpCAM, swine 27 mer (Sus …); assay: FACS on transfected 293-HEK cells
[5] = target: T4, 1-27 CD3-Fc (N-terminal amino acids …); assay: SPR (Biacore 2000), 1-27 CD3-Fc coupled to CM5 chip, Langmuir model
[6] = target: T5, human CD3 (epsilon) on human T cells (HPB-ALL cell line, human PBMC) (human, UniProt P07766 23-207); assay: FACS, HPB-ALL
T5 construct: whole, on cells; also called native CD3
T5 sequence (P07766 23-207): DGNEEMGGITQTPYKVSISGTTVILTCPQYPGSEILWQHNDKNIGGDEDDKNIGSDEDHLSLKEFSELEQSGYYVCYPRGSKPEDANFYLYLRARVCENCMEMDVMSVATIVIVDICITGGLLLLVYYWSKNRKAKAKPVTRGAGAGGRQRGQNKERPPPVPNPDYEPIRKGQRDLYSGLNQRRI

Row | binding result [1] | Kd [5] | Binder | further results
1 | binds | – | A2J HLP single-chain antibody (scFv, Crude periplasmic preparation, Flag and His6 tags) scFv: EVQLLESGGGLVQPGGSLKLSCAASGFTFNVYAMNWVRQAPGKGLEWVARIRSKYNNYATYYADSVKKRFTISRDDSKNTAYLQMNNLKTEDTAVYYCVRHGNFGNSYLSWWAYWGQGTLVTVSSGGGGSGGGGSGGGGSELVVTQEPSLTVSPGGTVTLTCRSSTGAVTSGYYPNWVQQKPGQAPRGLIGATDMRPSGTPARFSGSLLGGKAALTLSGVQPEDEAEYYCALWYSNRWVFGGGTKLTVL | –
2 | binds | – | E2M HLP single-chain antibody (scFv, Crude periplasmic preparation, Flag and His6 tags) scFv: EVQLLESGGGLVQPGGSLKLSCAASGFTFNGYAMNWVRQAPGKGLEWVARIRSKYNNYATYYADSVKERFTISRDDSKNTAYLQMNNLKTEDTAVYYCVRHRNFGNSYLSWFAYWGQGTLVTVSSGGGGSGGGGSGGGGSELVVTQEPSLTVSPGGTVTLTCRSSTGAVTSGYYPNWVQQKPGQAPRGLIGATDMRPSGTPARFSGSLLGGKAALTLSGVQPEDEAEYYCALWYSNRWVFGGGTKLTVL | binding result [2]: binds; binding result [3]: binds; binding result [4]: no binding
3 | – | 249 nM | EGFR-21-63 LH x A2J HLP (bispecific antibody, plus C-terminal His6 tag; also called EGFR LH x A2J HLP) DIVLTQSPASLPVSLGQRATISCRASQSVSSSTYSYIHWYQQKPGQPPKLLITYASNLESGVPARFSGSGSGTDFTLDIHPVEEDDSSTYYCQHSWEIPFTFGSGTKLEIKGGGGSGGGGSGGGGSQVQLQQSGPDLVKPGASVKMSCKASGHTFTDCVIIWVKQRAGQGLEWIGQIYPGTGRSYYNEIFKGKATLTADKSSNTVHIQLSSLTSEDSAVYFCALSTLIHGTWFSYWGQGTLVTVSSGGGGSEVQLLESGGGLVQPGGSLKLSCAASGFTFNVYAMNWVRQAPGKGLEWVARIRSKYNNYATYYADSVKKRFTISRDDSKNTAYLQMNNLKTEDTAVYYCVRHGNFGNSYLSWWAYWGQGTLVTVSSGGGGSGGGGSGGGGSELVVTQEPSLTVSPGGTVTLTCRSSTGAVTSGYYPNWVQQKPGQAPRGLIGATDMRPSGTPARFSGSLLGGKAALTLSGVQPEDEAEYYCALWYSNRWVFGGGTKLTVL | –
4 | – | 2460 nM | EGFR-21-63 LH x E2M HLP (bispecific antibody, plus C-terminal His6 tag; also called EGFR LH x E2M HLP) DIVLTQSPASLPVSLGQRATISCRASQSVSSSTYSYIHWYQQKPGQPPKLLITYASNLESGVPARFSGSGSGTDFTLDIHPVEEDDSSTYYCQHSWEIPFTFGSGTKLEIKGGGGSGGGGSGGGGSQVQLQQSGPDLVKPGASVKMSCKASGHTFTDCVIIWVKQRAGQGLEWIGQIYPGTGRSYYNEIFKGKATLTADKSSNTVHIQLSSLTSEDSAVYFCALSTLIHGTWFSYWGQGTLVTVSSGGGGSEVQLLESGGGLVQPGGSLKLSCAASGFTFNGYAMNWVRQAPGKGLEWVARIRSKYNNYATYYADSVKERFTISRDDSKNTAYLQMNNLKTEDTAVYYCVRHRNFGNSYLSWFAYWGQGTLVTVSSGGGGSGGGGSGGGGSELVVTQEPSLTVSPGGTVTLTCRSSTGAVTSGYYPNWVQQKPGQAPRGLIGATDMRPSGTPARFSGSLLGGKAALTLSGVQPEDEAEYYCALWYSNRWVFGGGTKLTVL | –
5 | – | – | MCSP-G4 HLP x E2M HLP (bispecific antibody, plus C-terminal His6 tag) QVQLVQSGAEVKRPGASMKVSCKASGYTFTNYYIHWVRQAPGQGLEWMGWINPNSGATNYAQKFQGRVTMTRDTSTSTVYMELSSLRSEDTAVYYCAKSWVSWFASWGQGTLVTVSSGGGGSGGGGSGGGGSELVMTQSPDSLAVSLGERATINCKSSQSVLNSSNNRNYLAWYQQKPGQPPKLLIYWASTRESGVPDRFSGSGSGTDFTLTISGLQAEDVAVYYCQQHYSTPFTFGPGTKVDIKSGGGGSEVQLLESGGGLVQPGGSLKLSCAASGFTFNGYAMNWVRQAPGKGLEWVARIRSKYNNYATYYADSVKERFTISRDDSKNTAYLQMNNLKTEDTAVYYCVRHRNFGNSYLSWFAYWGQGTLVTVSSGGGGSGGGGSGGGGSELVVTQEPSLTVSPGGTVTLTCRSSTGAVTSGYYPNWVQQKPGQAPRGLIGATDMRPSGTPARFSGSLLGGKAALTLSGVQPEDEAEYYCALWYSNRWVFGGGTKLTVL | binding result [6]: binds
